Results reported in patent US20260250418A1 (BIOCYTOGEN PHARMACEUTICALS BEIJING, published 2026).

Columns and labels:
[1] = biological target: T1, human HER4 (hHER4, ACRO Biosystems Inc., Cat #: ER4-H5221), recombinant His-tagged (human, UniProt Q15303 26-649); assay: SPR, Ab captured on Protein A
T1 construct: Bought protein; not shown: His tag
T1 sequence (looked up): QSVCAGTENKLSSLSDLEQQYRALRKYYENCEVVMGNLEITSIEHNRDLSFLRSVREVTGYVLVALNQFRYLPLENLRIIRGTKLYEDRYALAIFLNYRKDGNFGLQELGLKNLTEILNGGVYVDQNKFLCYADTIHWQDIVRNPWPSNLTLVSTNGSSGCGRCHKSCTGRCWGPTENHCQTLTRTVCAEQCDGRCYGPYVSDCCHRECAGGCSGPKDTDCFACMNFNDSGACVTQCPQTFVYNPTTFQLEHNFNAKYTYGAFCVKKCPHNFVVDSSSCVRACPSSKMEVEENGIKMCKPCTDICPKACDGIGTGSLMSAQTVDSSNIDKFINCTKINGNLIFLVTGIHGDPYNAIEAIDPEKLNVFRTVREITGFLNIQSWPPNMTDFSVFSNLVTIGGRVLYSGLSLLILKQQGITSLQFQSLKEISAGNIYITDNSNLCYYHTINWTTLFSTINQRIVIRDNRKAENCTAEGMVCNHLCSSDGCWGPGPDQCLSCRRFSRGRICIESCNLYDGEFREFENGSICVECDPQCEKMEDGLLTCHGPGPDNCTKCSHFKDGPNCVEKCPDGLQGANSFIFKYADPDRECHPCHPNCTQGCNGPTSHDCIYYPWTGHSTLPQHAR
Method: (§1) The cross binding activities of anti-HER3 antibodies to HER family proteins were determined by surface plasmon resonance (SPR) using Biacore (Biacore, INC, Piscataway N.J.) 8K biosensor equipped with pre-immobilized Protein A sensor chips.
(§2) Purified anti-HER3 antibodies were diluted to 2 μg/mL and then injected into the Biacore 8K biosensor at 10 μL/min for about 50 seconds to achieve a desired protein density (e.g., about 200 response units (RU)). […] The association phase lasted for 180 s and the dissociation phase lasted 400 s followed by a regeneration step with Glycine (pH 2.0, 30 μL/min for 30 seconds). For isotype control (ISO), an antibody targeting an irrelevant target protein was used.

[2] = biological target: T2, human HER2 (hHER2, ACRO Biosystems Inc., Cat #: HE2-H5225), recombinant His-tagged (human, UniProt P04626 23-652); assay: SPR, Ab captured on Protein A
T2 construct: Bought protein; not shown: His tag
Method: as §1, §2

[3] = biological target: T3, human EGFR (hEGFR, ACRO Biosystems Inc., Cat #: EGR-H5222), recombinant His-tagged (human, UniProt P00533 25-645); assay: SPR, Ab captured on Protein A
T3 construct: Bought protein; not shown: His tag
Method: as §1, §2

[4] = biological target: T4, human HER3 on CHO-hHER3 cells (human, UniProt P21860 20-643); assay: flow cytometry, transfected CHO cells
T4 construct: CHO-S cells transfected with hHER3
Method: (§3) CHO-hHER3 cells, CHO-mHER3 cells, CHO-fasHER3 cells or CHO-dHER3 cells were transferred to a 96-well plate at a density of 5×10⁴ cells/well respectively. The anti-HER3 antibodies were added to the 96-well plate, and incubated at 4° C. for 30 min.

[5] = biological target: T5, dog HER3 on CHO-dHER3 cells (dog, UniProt P21860 20-1342 (human entry)); assay: flow cytometry, transfected CHO cells
T5 construct: CHO-S cells transfected with dHER3
T5 chain: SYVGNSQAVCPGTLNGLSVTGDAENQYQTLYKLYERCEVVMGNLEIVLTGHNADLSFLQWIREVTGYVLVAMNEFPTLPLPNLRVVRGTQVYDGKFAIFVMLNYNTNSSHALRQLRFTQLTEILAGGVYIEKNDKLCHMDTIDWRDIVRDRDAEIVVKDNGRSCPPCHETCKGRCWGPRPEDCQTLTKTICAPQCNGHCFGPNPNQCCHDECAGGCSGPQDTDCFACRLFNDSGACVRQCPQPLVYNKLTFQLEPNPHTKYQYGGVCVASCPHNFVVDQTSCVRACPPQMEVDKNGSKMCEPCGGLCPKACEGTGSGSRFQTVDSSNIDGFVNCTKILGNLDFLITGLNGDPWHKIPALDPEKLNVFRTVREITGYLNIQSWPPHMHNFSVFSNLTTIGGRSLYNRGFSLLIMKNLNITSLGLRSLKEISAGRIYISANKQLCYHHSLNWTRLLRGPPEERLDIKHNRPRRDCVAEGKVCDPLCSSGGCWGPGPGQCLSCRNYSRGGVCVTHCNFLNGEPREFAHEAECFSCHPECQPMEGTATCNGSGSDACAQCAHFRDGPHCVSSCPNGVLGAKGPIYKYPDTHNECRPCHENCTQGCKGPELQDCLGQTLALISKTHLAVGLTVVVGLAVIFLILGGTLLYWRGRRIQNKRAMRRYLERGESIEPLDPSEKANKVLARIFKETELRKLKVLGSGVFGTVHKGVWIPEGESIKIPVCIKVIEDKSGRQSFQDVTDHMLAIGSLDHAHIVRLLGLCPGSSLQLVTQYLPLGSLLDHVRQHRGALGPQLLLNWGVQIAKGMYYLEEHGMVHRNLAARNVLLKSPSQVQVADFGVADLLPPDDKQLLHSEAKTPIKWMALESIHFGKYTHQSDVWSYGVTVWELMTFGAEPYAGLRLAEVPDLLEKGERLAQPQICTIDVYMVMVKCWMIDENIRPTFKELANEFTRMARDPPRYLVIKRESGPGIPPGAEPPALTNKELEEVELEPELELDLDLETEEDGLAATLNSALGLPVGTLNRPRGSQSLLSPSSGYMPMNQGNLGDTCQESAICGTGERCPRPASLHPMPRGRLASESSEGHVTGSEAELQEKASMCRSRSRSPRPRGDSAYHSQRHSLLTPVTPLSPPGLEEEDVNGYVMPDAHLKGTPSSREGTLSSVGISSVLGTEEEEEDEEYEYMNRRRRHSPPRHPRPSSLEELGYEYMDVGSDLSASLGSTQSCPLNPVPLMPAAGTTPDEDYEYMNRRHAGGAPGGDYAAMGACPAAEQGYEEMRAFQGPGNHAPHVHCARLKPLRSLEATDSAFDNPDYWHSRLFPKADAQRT
Method: as §3

Binder	binding result [1]	binding result [2]	binding result [3]	Percentage of Positive Cells [4] [%]	Percentage of Positive Cells [5] [%]
anti-HER3 antibody 1C5 (antibody, V domains shown, common light chain) VH: QVQLVESGGGVVQPGKSLRLSCAASGFTFSRSGMHWVRQAPGKGLEWVALISFDGSNKYYADSVKGRFTISRDNSKNTLNLQMNSLRAEDTAVYYCAKGGFGVVIYDAFDIWGHGTMVTVSS VL: not shown	no binding (tested: 400 nM)	no binding (tested: 400 nM)	no binding (tested: 400 nM)	74	33.1
anti-HER3 antibody 3G6 (antibody, V domains shown, common light chain) VH: QVQLVQSGPVLVKPTETLTLTCTVSGFSLSNIRMGVSWIRQPPGKALEWLAHIFSNDDKSYSTSLKSRLTISKDTSKSQVVLTMTNVDPVDTATYYCTRMRYSGGPFDYWGQGTLVTVSS VL: not shown	no binding (tested: 400 nM)	no binding (tested: 400 nM)	no binding (tested: 400 nM)	66.5	29.8
anti-HER3 antibody 3E1 (antibody, V domains shown, common light chain) VH: EVQLVQSGPVLAKPTETLTLTCTVSGFSLSNIRMGVSWIRQPPGKALEWLAHIFSNDDKSYSPSLKNRLTISKDTSKSQVVLTMTTMDPMDTATYYCTRMKYSGGPFDYWGQGTLVTVSS VL: not shown	no binding (tested: 400 nM)	no binding (tested: 400 nM)	no binding (tested: 400 nM)	70.6	13.2
anti-HER3 antibody 1B2 (antibody, V domains shown, common light chain) VH: QVQLVQSGPVLVKPTETLTLTCTVSTFSLSNARMGVSWIRQPPGKALEWLAHIFSNDDKSYSPSLKSRLTISKDTSKTQVVLTMTNMDPVDTATYYCSRMRYSGGPFDYWGQGSLVTVSS VL: not shown	no binding (tested: 400 nM)	no binding (tested: 400 nM)	no binding (tested: 400 nM)	71.3	32.1
